# B1: Hairpin Ribozyme (parent)
# chain: GUCCUCUUUCACGUGCGCGUGAAAGAGAGAAGUGAACCAGAGAAACACACGUUGUGGUAUAUUACCUGGUA
# Variants of: B1
# Test: self-cleavage, relative activity (ratio to wild type); higher = more cleavage; co-transcriptional
row,Variant,self-cleavage
1,U8A U63C,0.218
2,C3G G42C,0.103
3,C12U A59C,0.149
4,C12G C66G,0.26
5,U14G A24U,0.653
6,C10A A22C,0.636
7,G29C A39C,0.106
8,C10U A11G,0.734
9,C10G G21U,0.872
10,A30G U63A,0.0503
11,G1C G13U,0.225
12,A11U G57A,0.15
13,G19C A49U,0.207
14,A24U A30G,0.164
15,U20G U63G,0.265
16,A39U G40C,0.149
17,U5G G13A,0.245
18,U2G G29C,0.122
19,G51U G54A,0.72
20,U9C U67C,0.203
21,A36C G68C,0.153
22,C6G A43C,0.11
23,A26U A28U,0.257
24,U20G U53G,0.702

row,Variant,self-cleavage
1,A30G A39U,0.138
2,A44C G54C,0.0581
3,C3U G17C,0.305
4,C18A A22C,1.04
5,G15C C48U,0.112
6,C4A G17U,0.148
7,G57A A71C,0.4
8,A23U G68U,0.197
9,U52A U62G,0.0279
10,U52A U62C,0.187
11,U14G G19U,0.893
12,A26U C37G,0.185
13,A26U C37A,0.243
14,C46G G69U,0.105
15,U2A C12U,0.166
16,G40A G54C,0.0891
17,A31G G51C,0.495
18,U2A A30U,0.0131
19,U5A A35U,0.295
20,A47C G57C,0.0853
21,A24C A71C,1.33
22,A47C G68C,0.195
23,U9A U53C,0.732
24,C18U A22G,0.784

row,Variant,self-cleavage
1,A22U A59U,0.143
2,U33G C37U,0.267
3,G15A A22U,0.699
4,C16A A28G,0.988
5,A11G A39C,0.45
6,A28U A59G,0.243
7,G19C A41G,0.743
8,G29U A47U,0.169
9,G1C A59G,0.0434
10,C46A U53C,0.148
11,A43U A45C,0.0872
12,A39U A47C,0.168
13,A23C A30G,0.184
14,U8A A41G,0.615
15,A26U A49U,0.0963
16,A30C A71C,0.592
17,U62G G68A,0.263
18,C38U G68A,0.931
19,G13C C48A,0.16
20,U5A C46G,0.232
21,C18U C37G,0.352
22,C3A U9G,0.576
23,A31C U70A,0.131
24,A41U U70C,1.42

row,Variant,self-cleavage
1,U14G C38U,0.345
2,G1U C48A,0.134
3,G32U G54C,0.1
4,U14G A39G,0.227
5,U55C G68U,0.0915
6,A11G U70G,0.846
7,U9C U60G,0.615
8,U53A G54C,0.472
9,G56U U63A,0.157
10,A35C G57C,0.134
11,C48G C50U,0.177
12,A26G A49C,0.148
13,C18U A43C,0.164
14,G13U G40C,0.122
15,G13U C50A,0.213
16,A36U C38G,0.0875
17,C18U G54C,0.543
18,G17U C50A,0.232
19,U2A A24G,0.286
20,A23G G69U,0.148
21,U7A A28C,0.471
22,U7A A28G,1.03
23,A22G G32U,0.0605
24,U14A A44G,0.189

row,Variant,self-cleavage
1,U2C G40A,0.192
2,U7A A22C,0.649
3,G13C A41C,0.892
4,G34C G56U,0.331
5,A23C G54A,0.416
6,U20C G27U,0.181
7,C6G A11G,0.456
8,C16G G57C,0.108
9,G21U U70G,0.687
10,G13A G21C,0.862
11,C50G U67A,0.274
12,A39C U58G,0.315
13,C37A A59U,0.0631
14,C37A A59G,0.241
15,G21C C38G,0.154
16,A35G C38U,0.371
17,C3G G57C,0.0572
18,A36G G51U,0.97
19,A30C C46U,0.367
20,A30G G54A,0.102
21,G42U C48G,0.134
22,A36C A43C,0.07
23,G1U A28U,0.198
24,G29C A49C,0.159

row,Variant,self-cleavage
1,A28U U52A,0.423
2,U8G U14C,0.814
3,A30C C50G,0.142
4,C16G A39G,0.288
5,U8A C38A,0.15
6,G40U G68U,0.195
7,U20C G54U,0.386
8,A22G A28U,0.673
9,A11C G34U,1.45
10,C4U G29U,0.194
11,C10U C65A,0.642
12,C10U C65U,0.204
13,A35U C38A,0.135
14,U33G G34U,0.0449
15,C12G A47G,0.076
16,U5A A39C,0.139
17,U8A C12A,0.606
18,A11G G21U,0.72
19,C6U C65G,0.232
20,U2C C38A,0.0742
21,G13A C37G,0.174
22,A26C U60A,0.659
23,G19A A31U,0.176
24,A26C G34C,1.47

row,Variant,self-cleavage
1,C10A C48A,0.102
2,G17A A39U,0.44
3,G19U U60C,1.2
4,C6U G51C,0.823
5,A11G A35U,0.764
6,G13U G34A,1.1
7,A26U C65A,0.701
8,G1A A28C,0.175
9,G1C G40C,0.0947
10,C3G G17A,0.388
11,U33G A36U,0.129
12,G15A G40A,0.306
13,A11C C18A,0.768
14,A49C U55A,0.164
15,C65G G69U,0.156
16,C18G U33C,0.164
17,G13U C38U,0.231
18,G13U C38A,0.188
19,A11G A71C,1.35
20,G51A C65U,0.151
21,U8G G42C,0.284
22,A11G A41C,1.06
23,U5C C6U,0.318
24,U9G G68C,0.136

row,Variant,self-cleavage
1,G17A A44G,0.233
2,A39C A64G,0.0974
3,A30G A45U,0.177
4,A59C U63C,0.199
5,G54C C65U,0.132
6,G13C A36C,0.304
7,C46G A64G,0.144
8,G19A G27A,0.243
9,C38U A64C,0.233
10,G15A A35C,0.806
11,G1U A47U,0.0955
12,A31G U63C,0.105
13,A39G G57U,0.0985
14,G17C U60A,0.582
15,A22G C50A,0.227
16,A11C C65G,0.331
17,A28U U70C,0.394
18,C3A A41U,1.25
19,G1C C3A,0.257
20,A23U U67G,0.213
21,G25A U55G,0.159
22,G17A U33A,0.12
23,G34C A44U,0.119
24,A43U C66G,0.138

row,Variant,self-cleavage
1,U7G G32U,0.135
2,G15U U55C,0.306
3,G15U U55G,0.302
4,G27A A47C,0.214
5,A23U U70A,0.729
6,C3G A41U,0.527
7,G25A A64C,0.23
8,G54U U67G,0.171
9,G42C,0.318
10,C50U C65A,0.359
11,A61G G68U,0.163
12,C46A A61G,0.0812
13,C18U C46A,0.252
14,A11C G40C,0.182
15,U20G G29U,0.101
16,U33G G57U,0.2
17,U2G C6U,0.303
18,G32U U60G,0.0848
19,A24G G42A,0.111
20,A41G G42U,0.236
21,A23U G57A,0.116
22,G21C G51C,0.803
23,G42U U67C,0.131
24,A35U U55A,0.129

row,Variant,self-cleavage
1,A61C G68C,0.153
2,C16G U52G,0.443
3,U20A U63G,0.263
4,G15C C66U,0.555
5,U20G U60G,0.662
6,U63A C66U,0.258
7,G1A C4A,0.248
8,A23U A39C,0.483
9,A35G G68U,0.208
10,C37G A71G,0.341
11,A31G U55G,0.0654
12,A30G A47C,0.152
13,G29C C38A,0.174
14,A22C G51C,0.769
15,C16G A36C,0.399
16,G1U A61C,0.0683
17,U14G A41C,0.698
18,C3A U5A,0.214
19,A43U C50A,0.0923
20,U14C A43C,0.114
21,G27U U53G,0.23
22,C10G U60A,0.608
23,C18U A45U,0.109
24,C50A U52C,0.31

row,Variant,self-cleavage
1,A61G G69C,0.156
2,C3U U8A,0.361
3,U8C A39U,0.25
4,C46U G57C,0.0631
5,A26U C48G,0.117
6,A31C A41G,0.102
7,C3A G54A,0.351
8,U20G G40U,0.206
9,G54U A61C,0.152
10,A64G C65G,0.101
11,G40U A61U,0.132
12,A36C A49U,0.203
13,U8G A45C,0.111
14,G15U U62C,0.461
15,U2G C37G,0.0975
16,U8A A24G,0.511
17,G13C C46G,0.164
18,C4A C18A,0.13
19,G19U G69A,0.32
20,U8C G56C,0.12
21,A47U U63A,0.114
22,G13A A28G,1
23,G27A A61U,0.155
24,C3U A47G,0.275

row,Variant,self-cleavage
1,A22U A30U,0.262
2,A23U A30G,0.228
3,G15C G54C,0.404
4,A11U U14A,0.796
5,G19A A61C,0.169
6,G17C U52A,0.816
7,C38U G40A,0.203
8,G21A A44C,0.116
9,U9C C10A,0.696
10,U9C C10U,0.527
11,G13U G29C,0.133
12,U8C A59U,0.116
13,U8A C46U,0.0775
14,U20G A45C,0.16
15,C18A G56C,0.136
16,C48U A59G,0.121
17,G29U C38A,0.179
18,U20C G29A,0.181
19,U9A A59G,0.154
20,C66G G68A,0.123
21,A26G U52G,0.721
22,A47U A49G,0.161
23,C12G U53C,0.919
24,U2C C18U,0.162

row,Variant,self-cleavage
1,A49C G54A,0.235
2,G15C U62G,0.134
3,A22U A39C,0.456
4,U8G A30C,0.141
5,G17C A71C,1.18
6,G40C C46G,0.21
7,U14G G68C,0.0739
8,G25U U67A,0.145
9,A44U G51C,0.246
10,U53C U70C,1.04
11,U9A U55G,0.279
12,C4G G29U,0.13
13,U9A A24C,0.514
14,C46A U60G,0.102
15,C18A G21A,0.895
16,A11C G29U,0.113
17,C3G U8A,0.377
18,C10U G13U,0.612
19,G25A C50G,0.14
20,U53G U62A,0.0694
21,G27U A41G,0.305
22,A43G U67A,0.125
23,G34U A43G,0.125
24,C37U C38U,0.201

row,Variant,self-cleavage
1,U2G G69A,0.109
2,C3A A45G,0.197
3,G17U A26U,0.632
4,A11C A28U,0.603
5,U60G U70A,0.572
6,G13C A22C,0.591
7,G51A U70G,0.792
8,A28C C38A,0.205
9,A22C C37G,0.368
10,C48U A64U,0.11
11,U7C G51A,0.69
12,C16A A35C,1.26
13,C12A A30C,0.159
14,G1A G56U,0.0996
15,C46A G68U,0.137
16,A11C A49U,0.197
17,G40U A43C,0.165
18,C4U A49G,0.0694
19,A35C C38A,0.201
20,C3U A31U,0.102
21,G1C G42C,0.272
22,U8G A28C,0.433

# — the RNAGym collection of RNA variant scans (doi:10.7554/elife.80360)
